For the test, the target named is human EphA2-Fc, biotinylated (human, UniProt P29317 24-537, biotin (EZ-Link Sulfo NHS-LC-LC-Biotin, 1:1 molar ratio)). The experiment in a line: BLI.
human EphA2-Fc, biotinylated, sequence (P29317 24-537): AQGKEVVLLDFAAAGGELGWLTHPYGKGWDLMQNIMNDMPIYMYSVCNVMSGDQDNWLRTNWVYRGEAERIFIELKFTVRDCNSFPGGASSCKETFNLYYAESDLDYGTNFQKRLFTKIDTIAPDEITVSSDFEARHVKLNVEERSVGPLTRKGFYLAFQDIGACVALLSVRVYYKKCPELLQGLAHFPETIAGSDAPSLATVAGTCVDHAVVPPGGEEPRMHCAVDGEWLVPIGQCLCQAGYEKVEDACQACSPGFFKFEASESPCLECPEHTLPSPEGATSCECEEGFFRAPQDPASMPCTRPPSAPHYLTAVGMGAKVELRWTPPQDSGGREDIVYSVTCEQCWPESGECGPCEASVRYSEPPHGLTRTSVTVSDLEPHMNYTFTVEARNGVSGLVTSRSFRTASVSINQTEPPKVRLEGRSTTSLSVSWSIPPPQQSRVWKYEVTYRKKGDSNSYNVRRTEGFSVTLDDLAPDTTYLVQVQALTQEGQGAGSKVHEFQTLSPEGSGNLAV

B1: human ephrin-A1-Fc (recombinant soluble ephrin-A1 fused to human IgG1Fc) (Fc fusion, UniProt P20827 19-182, looked up)
chain: DRHTVFWNSSNPKFRNEDYTIHVQLNDYVDIICPHYEDHSVADAAMEQYILYLVEHEEYQLCQPQSKDQVRWQCNRPSAKHGPEKLSEKFQRFTPFTLGKEFKEGHSYYYISKPIHQHEDRCLRLKVTVSGKITHSPQAHDNPQEKRLAADDPEVRVLHSIGHS
Take B1: the binding result is “binds”.
